Among the targets are Pax7 HD (mouse (Mus musculus), UniProt P47239 215-273); Pax7 PD (mouse (Mus musculus), UniProt P47239 35-158); Pax7 PD-L (mouse (Mus musculus), UniProt P47239 35-215); Pax7 PD-HD homodimer (mouse (Mus musculus), UniProt P47239 35-273).
Holding throughout (test): EMSA
Data set [1] addresses T1, Pax7 PD-HD (mouse (Mus musculus), UniProt P47239 35-273).
The target of data set [2] is T1, Pax7 PD-HD. The source holds these as a separate data set.
Data set [3] concerns the target T1, Pax7 PD-HD. This is another data set of the same source.
Data set [4] deals with T1, Pax7 PD-HD. The source holds these as a separate data set.

Like-named read-outs stand apart in the source and are kept apart here.

T1 sequence (P47239 35-273): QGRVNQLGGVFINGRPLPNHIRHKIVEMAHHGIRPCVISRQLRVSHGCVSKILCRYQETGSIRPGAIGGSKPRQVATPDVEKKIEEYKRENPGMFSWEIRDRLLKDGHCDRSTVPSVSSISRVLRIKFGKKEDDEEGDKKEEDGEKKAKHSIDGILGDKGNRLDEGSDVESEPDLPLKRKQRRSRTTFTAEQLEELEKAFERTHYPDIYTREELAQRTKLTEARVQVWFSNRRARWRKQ
Pax7 HD, sequence (P47239 215-273): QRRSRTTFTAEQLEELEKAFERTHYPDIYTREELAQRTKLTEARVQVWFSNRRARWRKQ
Pax7 PD, sequence (P47239 35-158): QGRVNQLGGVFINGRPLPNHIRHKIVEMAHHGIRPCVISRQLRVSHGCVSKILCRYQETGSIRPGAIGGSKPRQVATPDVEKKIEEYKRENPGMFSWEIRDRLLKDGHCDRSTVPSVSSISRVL
Pax7 PD-HD homodimer, sequence (P47239 35-273): as the sequence (P47239 35-273) above
Pax7 PD-L, sequence (P47239 35-215): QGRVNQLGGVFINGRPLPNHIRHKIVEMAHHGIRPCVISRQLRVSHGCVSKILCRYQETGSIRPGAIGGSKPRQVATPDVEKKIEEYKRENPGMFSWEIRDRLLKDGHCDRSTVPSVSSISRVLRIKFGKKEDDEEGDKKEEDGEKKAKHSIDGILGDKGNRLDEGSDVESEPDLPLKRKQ

B1: H.I-2 (dsDNA)
DNA 1: TCGACCAGATCGTCCGCTAATTACCAACGACCTCGA
DNA 2: TCGAGGTCGTTGGTAATTAGCGGACGATCTGGTCGA
Take B1: the binding result is listed as “binds” with Pax7 PD-HD [1] and “no binding” with Pax7 HD.

B2: PD (mutated HD) (dsDNA)
DNA 1: TCGACGCAGATCCGTGACGCCAGTTCCGACCTCGA
DNA 2: TCGAGGTCGGAACTGGCGTCACGGATCTGCGTCGA
On to B2, for which the binding result in the data set with Pax7 PD-HD [2], with Pax7 PD and with Pax7 PD-L was “binds” each time.

B3: Composite HP.E0 (dsDNA)
DNA 1: TCGACGCAGATCCGTGACTAATGTTCCGACCTCGA
DNA 2: TCGAGGTCGGAACATTAGTCACGGATCTGCGTCGA
Consider B3, for which the binding result with Pax7 PD and in the data set with Pax7 PD-HD [3] was “binds” in each case.

B4: HD (mutated PD) (dsDNA)
DNA 1: TCGACGCAGATCGTCCGCTAATTCCAACGACCTCGA
DNA 2: TCGAGGTCGTTGGAATTAGCGGACGATCTGCGTCGA
As to B4, the binding result in the data set with Pax7 HD is listed as “no binding”.

B5: H.I2 (dsDNA)
DNA 1: TCGACTCGTCCGCTAATTGATTATCCAACGACCTCGA
DNA 2: TCGAGGTCGTTGGATAATCAATTAGCGGACGAGTCGA
For the molecule B5, the binding result with Pax7 HD, with Pax7 PD-HD [4] and with Pax7 PD-HD homodimer was “binds” throughout.

The values are drawn from PMC8287922.
